Test results reported in patent publication US20260191905A1 (MODERNATX, published 2026).
Where a chain is given by its changes, count along the chain named. One block for each molecule: values may come before it.

Key:
[1] = biological target: human GPC3 on Jurkat E6.1 cells (human) (UniProt P51654); experiment: FACS; share of events in the FL1-A+ gate (from 10^5); cells by legend: Jurkat E6.1 with human GPC3, not printed on the panel [23C]
[2] = biological target: human GPC3 on Jurkat E6.1 cells (human) (UniProt P51654); experiment: FACS; share of events in the FL1-A+ gate (from 10^5); beside Irrelavant IgG C10 6.49; cells by legend: Jurkat E6.1 with human GPC3, not printed on the panel [23D]
[3] = biological target: human GPC3 on Jurkat E6.1 cells (human) (UniProt P51654); experiment: FACS; share of events in the FL1-A+ gate (from 10^5); secondary only 0.21; cells by legend: Jurkat E6.1 with human GPC3, not printed on the panel [23B]
[4] = biological target: T1, human GPC3 recombinant protein (human, UniProt P51654 25-559); experiment: SPR (Biacore), summary table; Chi2 0.926; Profile 'L.D.' (less desirable)
T1 construct: also called huGPC3; Human GPC3 protein
T1 sequence (P51654 25-559 limits assumed): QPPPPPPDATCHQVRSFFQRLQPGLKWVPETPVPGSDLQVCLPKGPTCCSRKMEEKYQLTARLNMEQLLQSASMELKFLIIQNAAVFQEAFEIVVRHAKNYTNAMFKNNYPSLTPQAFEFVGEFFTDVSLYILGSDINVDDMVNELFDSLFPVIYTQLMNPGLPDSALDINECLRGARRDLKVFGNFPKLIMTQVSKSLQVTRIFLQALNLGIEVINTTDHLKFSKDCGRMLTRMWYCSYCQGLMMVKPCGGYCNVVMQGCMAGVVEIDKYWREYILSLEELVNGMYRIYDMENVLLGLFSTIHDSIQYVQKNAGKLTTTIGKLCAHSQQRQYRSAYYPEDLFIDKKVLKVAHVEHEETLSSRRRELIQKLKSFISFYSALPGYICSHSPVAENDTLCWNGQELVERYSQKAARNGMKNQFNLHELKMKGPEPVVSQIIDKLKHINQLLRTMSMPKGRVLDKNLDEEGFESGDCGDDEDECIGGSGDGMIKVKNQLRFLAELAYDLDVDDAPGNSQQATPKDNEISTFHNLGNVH
Procedure: (§1) Affinities of the 19 VHH-His tagged domains were then determined by BiaCore assay. Human GPC3 protein (Sino biological cat. nr. 10088-H08H-500) was immobilized on CM5 sensor chip (GE Healthcare) as antigen. Purified VHH-His tagged domains were diluted in BiaCore buffer (0.01 M HEPES pH 7.4, 0.15 M NaCl, 3 mM EDTA, 0.05% P20) to 500 nM and injected over 2 minutes at […] followed by a half dilution series to 7.8 nM. 10 μl of 10 mM NaOH/1M NaCl were injected between samples and then off-rate wash was 5 minutes.

[5] = biological target: T1, human GPC3 recombinant protein; experiment: SPR (Biacore) off-rate screen, periplasmic extract over human GPC3 on CM5; R0 13.6; asterisk not explained on the sheet
Procedure: (§2) Human GPC3 protein in acetate buffer, pH 5.0, was immobilized in a sensor chip CM5 (GE Healthcare; Cat. Nr. BR-1005-30; Lot. Nr.10245232) and successful immobilization was confirmed by using a commercially available human GPC3 antibody (R&D cat. nr. MAB2119) and the anti-GPC3-VHH-Fc (both at 10 μg/mL). Periplasmic extracts from the MP were diluted in Biacore Buffer (0.01 M HEPES pH 7.4, 0.15 M NaCl, 3 mM EDTA, 0.05% P20) and injected over 2 minutes at 30 μL/min. 10 μl of 10 mM NaOH/1M NaCl were injected between samples and off-rates were measured over 5 minutes. Off-rate ([…]) were calculated using BIACORE software 1:1 interaction Langmuir binding model.

[6] = biological target: T2, human GPC3 on HepG2 cells (human, UniProt P51654 25-554); experiment: FACS, periplasmic extract 1:5 + anti-c-myc + GAM-APC on HepG2, well A1; same on A-431: 0.10%
T2 construct: whole, on cells
T2 sequence (P51654 25-554 limits assumed): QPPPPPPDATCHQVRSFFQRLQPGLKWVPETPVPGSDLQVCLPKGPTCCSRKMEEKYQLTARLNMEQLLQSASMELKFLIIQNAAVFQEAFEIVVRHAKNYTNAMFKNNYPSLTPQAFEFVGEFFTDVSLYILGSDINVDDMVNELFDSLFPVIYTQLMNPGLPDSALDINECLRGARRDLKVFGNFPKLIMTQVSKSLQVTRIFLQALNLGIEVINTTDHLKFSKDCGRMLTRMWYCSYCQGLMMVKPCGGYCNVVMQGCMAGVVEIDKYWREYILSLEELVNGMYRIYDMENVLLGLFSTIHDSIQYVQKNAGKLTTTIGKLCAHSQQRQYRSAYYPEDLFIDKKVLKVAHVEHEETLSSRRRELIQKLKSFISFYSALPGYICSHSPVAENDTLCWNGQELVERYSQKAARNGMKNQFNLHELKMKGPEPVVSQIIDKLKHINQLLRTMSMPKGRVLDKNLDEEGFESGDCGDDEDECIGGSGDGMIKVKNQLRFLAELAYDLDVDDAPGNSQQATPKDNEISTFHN

[7] = biological target: T2, human GPC3 on HepG2 cells; experiment: FACS, phage-displayed clone on HepG2, well A1; same clone on A-431 (no GPC3): 1028.96
[8] = biological target: T1, human GPC3 recombinant protein; experiment: SPR (Biacore), VHH-His over human GPC3 on CM5; fit 125 - 7.8 nM; Rmax 16.8 RU; Chi2 0.926
Procedure: as §1

[9] = biological target: T2, human GPC3 on HepG2 cells; experiment: FACS, phage-displayed clone on HepG2, well A1; same clone on A-431 (no GPC3): 0.95%
[10] = biological target: T2, human GPC3 on HepG2 cells; experiment: FACS, periplasmic extract 1:5 + anti-c-myc + GAM-APC on HepG2, well A1; same on A-431: 853.36
[11] = biological target: T1, human GPC3 recombinant protein; experiment: SPR (Biacore) off-rate screen, periplasmic extract over human GPC3 on CM5; R0 40.1
Procedure: as §2

[12] = biological target: T1, human GPC3 recombinant protein; experiment: SPR (Biacore), summary table; Chi2 0.281; Profile 'Good'
[13] = biological target: T1, human GPC3 recombinant protein; experiment: SPR (Biacore), VHH-His over human GPC3 on CM5; fit 131.7 - 17.34 nM; Rmax 11.5 RU; Chi2 0.281
Procedure: as §1

[14] = biological target: T1, human GPC3 recombinant protein; experiment: SPR (Biacore) off-rate screen, periplasmic extract over human GPC3 on CM5; R0 61.1
Procedure: as §2

[15] = biological target: T2, human GPC3 on HepG2 cells; experiment: FACS, phage-displayed clone on HepG2, well A2; same clone on A-431 (no GPC3): 1042.47
[16] = biological target: T1, human GPC3 recombinant protein; experiment: SPR (Biacore), VHH-His over human GPC3 on CM5; fit 250 - 7.8 nM; Rmax 11.3 RU; Chi2 0.365
Procedure: as §1

[17] = biological target: T2, human GPC3 on HepG2 cells; experiment: FACS, phage-displayed clone on HepG2, well A2; same clone on A-431 (no GPC3): 0.72%
[18] = biological target: T2, human GPC3 on HepG2 cells; experiment: FACS, periplasmic extract 1:5 + anti-c-myc + GAM-APC on HepG2, well A2; same on A-431: 0.21%
[19] = biological target: T2, human GPC3 on HepG2 cells; experiment: FACS, periplasmic extract 1:5 + anti-c-myc + GAM-APC on HepG2, well A2; same on A-431: 753.37
[20] = biological target: T1, human GPC3 recombinant protein; experiment: SPR (Biacore) off-rate screen, periplasmic extract over human GPC3 on CM5; R0 71.6
Procedure: as §2

[21] = biological target: T1, human GPC3 recombinant protein; experiment: SPR (Biacore), summary table; Chi2 0.365; Profile 'Medium'; FIG. 18 prints 3.82E-09
[22] = biological target: T1, human GPC3 recombinant protein; experiment: SPR (Biacore), VHH-His over human GPC3 on CM5; fit 131.7 - 17.34 nM; Rmax 1.72 RU; Chi2 0.173
Procedure: as §1

[23] = biological target: T1, human GPC3 recombinant protein; experiment: SPR (Biacore), summary table; Chi2 0.173; Profile 'L.D.'; asterisk: values not accurately calculated by Biacore software
Procedure: as §1

[24] = biological target: T1, human GPC3 recombinant protein; experiment: SPR (Biacore), VHH-His over human GPC3 on CM5; fit 131.7 - 17.34 nM; Rmax 1.72 RU; Chi2 0.173; asterisk: values not accurately calculated by Biacore software
Procedure: as §1

[25] = biological target: T1, human GPC3 recombinant protein; experiment: SPR (Biacore), summary table; Chi2 0.281; Profile 'Medium'; FIG. 18 prints 2.97E-09
Procedure: as §1

[26] = biological target: T2, human GPC3 on HepG2 cells; experiment: FACS, phage-displayed clone on HepG2, well H1; same clone on A-431 (no GPC3): 1059.31
[27] = biological target: human GPC3 on Jurkat E6.1 cells (human) (UniProt P51654); experiment: FACS, 1 µg/ml VH + anti-His-FITC; share of events in the FL1-A+ gate (from 10^5); secondary only 0.21 [23F]
[28] = biological target: T2, human GPC3 on HepG2 cells; experiment: FACS, periplasmic extract 1:5 + anti-c-myc + GAM-APC on HepG2, well H1; same on A-431: 759.64
[29] = biological target: T1, human GPC3 recombinant protein; experiment: SPR (Biacore) off-rate screen, periplasmic extract over human GPC3 on CM5; R0 59.0
Procedure: as §2

[30] = biological target: T1, human GPC3 recombinant protein; experiment: SPR (Biacore), VHH-His over human GPC3 on CM5; fit 250 - 7.8 nM; Rmax 8.15 RU; Chi2 0.281
Procedure: as §1

[31] = biological target: T2, human GPC3 on HepG2 cells; experiment: FACS, phage-displayed clone on HepG2, well H1; same clone on A-431 (no GPC3): 1.36%
[32] = biological target: T2, human GPC3 on HepG2 cells; experiment: FACS, periplasmic extract 1:5 + anti-c-myc + GAM-APC on HepG2, well H1; same on A-431: 0.24%
[33] = biological target: T1, human GPC3 recombinant protein; experiment: SPR (Biacore), VHH-His over human GPC3 on CM5; fit 131.7 - 17.34 nM; Rmax 1.51 RU; Chi2 0.0556
Procedure: as §1

[34] = biological target: T1, human GPC3 recombinant protein; experiment: SPR (Biacore), VHH-His over human GPC3 on CM5; fit 131.7 - 17.34 nM; Rmax 1.51 RU; Chi2 0.0556; asterisk: values not accurately calculated by Biacore software
Procedure: as §1

[35] = biological target: T1, human GPC3 recombinant protein; experiment: SPR (Biacore), summary table; Chi2 0.0556; Profile 'L.D.'; asterisk: values not accurately calculated by Biacore software
Procedure: as §1

Chain of human GPC3 on Jurkat E6.1 cells (human) (P51654 25-554 limits assumed): as above

Molecule: Irrelavant IgG C10 (antibody)
FL1-A+ [1]: 6.49

Molecule: HN3-Fc (Fc fusion)
FL1-A+ [2]: 74.9
FL1-A+ [3]: 47.1

B2: VH23 (VHH)
VHH: EVQLVESGGGLVQPGGSLRLSCAASGFTFSSYAMSWVRQAPGKESEWVSSISGGGSSTYYADSLKGRFTISRDNSKNTLYLQMNSLRAEDTAVYYCSKDPRFGEPPFDYWGQGTLVTVSS
notes: also called VHH23
koff [11]: 0.00347 s⁻¹

B3: anti-GPC3 VHH-His tagged domain VHH4 (VHH)
VHH: B2 VHH with E1Q, G54S, L115T
notes: Produced from a mammalian expression vector as a His fusion; also called VH4; not shown: His tag
Kd [12]: 5.07 nM
Ka [13]: 1.97e+08 M⁻¹
Kd [13]: 5.07 nM
koff [13]: 0.00237 s⁻¹
kon [13]: 466000 M⁻¹ s⁻¹
koff [14]: 0.00236 s⁻¹

B4: anti-GPC3 VHH-His tagged domain VHH13 (VHH)
VHH: B2 VHH with S45P, S56G, S85R, S97A, K98R, R101M, P105R
notes: Produced from a mammalian expression vector as a His fusion; not shown: His tag
Mean FL2-A [15]: 26600
Ka [16]: 2.62e+08 M⁻¹
Kd [16]: 3.82 nM
koff [16]: 0.00538 s⁻¹
kon [16]: 1.41e+06 M⁻¹ s⁻¹
% of Binding [17]: 61.4%
% of Binding [18]: 0.3%
Mean FL4-A [19]: 752
koff [20]: 0.00607 s⁻¹
Kd [21]: 3.57 nM

B6: anti-GPC3 VHH-His tagged domain VHH11 (VHH)
VHH: B2 VHH with S45P, K98R, G103R
notes: as for B4
Kd [25]: 2.19 nM
Mean FL2-A [26]: 22600
FL1-A+ [27]: 0.78
Mean FL4-A [28]: 842
koff [29]: 0.00325 s⁻¹
Ka [30]: 3.37e+08 M⁻¹
Kd [30]: 2.97 nM
koff [30]: 0.00261 s⁻¹
kon [30]: 880000 M⁻¹ s⁻¹
% of Binding [31]: 66.2%
% of Binding [32]: 0.57%

More lines, now with the values ahead:

Kd [4]: 66.2 nM
koff [5]: 0.00728 s⁻¹
% of Binding [6]: 0.38%
Mean FL2-A [7]: 2720
Ka [8]: 1.51e+07 M⁻¹
Kd [8]: 66.2 nM
koff [8]: 0.0216 s⁻¹
kon [8]: 327000 M⁻¹ s⁻¹
% of Binding [9]: 18.6%
Mean FL4-A [10]: 729
B1: anti-GPC3 VHH-His tagged domain VHH14 (VHH)
VHH: QVQLVESGGGLVQPGGSLRLSCAASGFNFSNYWMHWVRQAPGKELVWVSRINSDGSSTSYADPVKGRFTISRDNANNMLYLQMNSLRAEDTAMYYCVRVALGFDFWGQGTLVTVSS
notes: as for B4

koff [22]: 0.00249 s⁻¹
kon [22]: 511000 M⁻¹ s⁻¹
Kd [23]: ~4.88 nM
Ka [24]: ~2.05e+08 M⁻¹
Kd [24]: ~4.88 nM
B5: anti-GPC3 VHH-His tagged domain VHH18 (VHH)
VHH: B2 VHH with E1Q, S45P, K98R, F102L, L115T
notes: as for B4

koff [33]: 0.00119 s⁻¹
kon [33]: 222000 M⁻¹ s⁻¹
Ka [34]: ~1.86e+08 M⁻¹
Kd [34]: ~5.36 nM
Kd [35]: ~5.36 nM
B7: anti-GPC3 VHH-His tagged domain VHH17 (VHH)
VHH: EVQLVESGGGLVQPGGSLRLSCAASGFTFSSYAMSWVRQAPGKGLEWVSAIYSGGSTYYADSVKGRFTISRDNSKNTLYLQMNSLRAEDTAVYYCARGDSSSSRFDYWGQGTLVTVSS
notes: as for B4
